The test system of experiment [1] is ICB DNA sequence (ICB1/ICB2 boxes of the human topoisomerase IIα promoter). Briefly: Gel retardation (acrylamide gel) binding of protein to 32P-labelled ICB oligonucleotides. As to conditions: 1 μg protein, 1 ng 32P-labelled oligonucleotide, competition with non-labelled oligonucleotides. The method, then: To test the ability of the 59 kDa protein to bind specifically to the ICB1 and/or ICB2 boxes, three tandem copies of ICB2 (ICB2X3, sequences described above) were labelled at the terminal end with 32 P phosphore using the T4 polynucleotide kinase (New England Biolabs) and […] (160 mCi/mmol, ICN Irvine, Calif., USA). To examine the specificity of the binding, oligonucleotides containing only one copy of the CCAAT box were synthesized:
The ICBP-59 protein (1 μg) was incubated with 1 ng of oligonucleotide and labelled at its terminal end by phosphorous ^32P in 12% glycerol, 12 mM HEPES-NaOH (pH 7.9), 60 mM KCl, 4 mM Tris-HCl (pH 7.9), 100 ng BSA, 0.6 mM DTT, and 100 ng poly(dI/dC) in 20 μl (Inouye et al., 1994). After a 30-minutes incubation at room temperature, the reaction mix was loaded in 6% polyacrylamide gels. In competition experiments, the quantity indicated of non-labelled oligonucleotides were added to the reaction mix 10 minutes before the addition of proteins. To examine the binding properties of ICBP90 with regard to the ICB2 box, we used the same protocol except that labelled oligonucleotide contained only one copy of the CCAAT sequence as described below:
Binding specificity was studied using a non-labelled nucleotide containing a GC box of the human topoisomerase IIa promoter: […]

The target in experiment [2] is T1, TIP60 (Tat Interactive Protein, 60 kDa) (Homo sapiens, UniProt Q92993).
T1 construct: expressed in transfected cells; own knowledge
T1 sequence (Q92993 whole entry, species assumed): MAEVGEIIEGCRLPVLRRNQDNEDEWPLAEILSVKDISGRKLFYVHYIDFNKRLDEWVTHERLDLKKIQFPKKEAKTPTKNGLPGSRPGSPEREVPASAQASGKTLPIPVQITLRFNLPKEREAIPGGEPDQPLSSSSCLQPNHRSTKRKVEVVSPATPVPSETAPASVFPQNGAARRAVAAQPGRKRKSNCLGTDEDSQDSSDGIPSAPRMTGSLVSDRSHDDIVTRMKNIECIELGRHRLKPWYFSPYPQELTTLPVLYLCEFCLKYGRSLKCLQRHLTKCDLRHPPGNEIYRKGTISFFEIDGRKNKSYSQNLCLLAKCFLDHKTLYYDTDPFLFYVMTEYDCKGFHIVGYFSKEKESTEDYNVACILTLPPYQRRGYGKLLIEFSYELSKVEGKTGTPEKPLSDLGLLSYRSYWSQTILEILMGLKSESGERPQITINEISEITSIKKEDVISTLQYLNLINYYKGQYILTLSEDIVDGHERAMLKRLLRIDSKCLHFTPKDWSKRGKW
Briefly: Double-hybrid technique, protein-protein interaction. It counts as binding. The text has this:
The TIP60 protein has very recently been described as being a coactivator of the nuclear receptor, especially the receptor for the androgens (Brady M E et al., 1999).

We go through two molecules from patent publication US7199218B1, “ICBP90 polypeptide and its fragments and polynucleotides coding for said polypeptides and applications for diagnosing and treating cancer” (Institut National de la Sante et de la Recherche Medicale …, priority 1999, dated 2007).

B1: ICBP90: Inverted CCAAT Box Binding Protein of 90 kDa, 793 amino acids, SEQ ID No.2 (protein, listed as Homo sapiens)
chain: MWIQVRTMDGRQTHTVDSLSRLTKVEELRRKIQELFHVEPGLQRLFYRGKQMEDGHTLFDYEVRLNDTIQLLVRQSLVLPHSTKERDSELSDTDSGCCLGQSESDKSSTHGEAAAETDSRPADEDMWDETELGLYKVNEYVDARDTNMGAWFEAQVVRVTRKAPSRDEPCSSTSRPALEEDVIYHVKYDDYPENGVVQMNSRDVRARARTIIKWQDLEVGQVVMLNYNPDNPKERGFWYDAEISRKRETRTARELYANVVLGDDSLNDCRIIFVDEVFKIERPGEGSPMVDNPMRRKSGPSCKHCKDDVNRLCRVCACHLCGGRQDPDKQLMCDECDMAFHIYCLDPPLSSVPSEDEWYCPECRNDASEVVLAGERLRESKKNAKMASATSSSQRDWGKGMACVGRTKECTIVPSNHYGPIPGIPVGTMWRFRVQVSESGVHRPHVAGIHGRSNDGSYSLVLAGGYEDDVDHGNFFTYTGSGGRDLSGNKRTAEQSCDQKLTNTNRALALNCFAPINDQEGAEAKDWRSGKPVRVVRNVKGGKNSKYAPAEGNRYDGIYKVVKYWPEKGKSGFLVWRYLLRRDDDEPGPWTKEGKDRIKKLGLTMQYPEGYLEALANREREKENSKREEEEQQEGGFASPRTGKGKWKRKSAGGGPSRAGSPRRTSKKTKVEPYSLTAQQSSLIREDKSNAKLWNEVLASLKDRPASGSPFQLFLSKVEETFQCICCQELVFRPITTVCQHNVCKDCLDRSFRAQVFSCPACRYDLGRSYAMQVNQPLQTVLNQLFPGYGNGR
As for B1, the “ability to bind specifically an ICB DNA sequence” value in experiment [1] was “identical from top to bottom to that observed for ICBP-59”. For the same molecule, in experiment [2], the “interaction with TIP60” value is “existence of interactions”.

B2: ICBP-59: 59 kDa C-terminal fragment, amino acids 263 to 793 of SEQ ID NO. 2 (protein, listed as Homo sapiens)
chain: DDSLNDCRIIFVDEVFKIERPGEGSPMVDNPMRRKSGPSCKHCKDDVNRLCRVCACHLCGGRQDPDKQLMCDECDMAFHIYCLDPPLSSVPSEDEWYCPECRNDASEVVLAGERLRESKKNAKMASATSSSQRDWGKGMACVGRTKECTIVPSNHYGPIPGIPVGTMWRFRVQVSESGVHRPHVAGIHGRSNDGSYSLVLAGGYEDDVDHGNFFTYTGSGGRDLSGNKRTAEQSCDQKLTNTNRALALNCFAPINDQEGAEAKDWRSGKPVRVVRNVKGGKNSKYAPAEGNRYDGIYKVVKYWPEKGKSGFLVWRYLLRRDDDEPGPWTKEGKDRIKKLGLTMQYPEGYLEALANREREKENSKREEEEQQEGGFASPRTGKGKWKRKSAGGGPSRAGSPRRTSKKTKVEPYSLTAQQSSLIREDKSNAKLWNEVLASLKDRPASGSPFQLFLSKVEETFQCICCQELVFRPITTVCQHNVCKDCLDRSFRAQVFSCPACRYDLGRSYAMQVNQPLQTVLNQLFPGYGNGR
On to B2, for which the “ability to bind specifically an ICB DNA sequence” value in experiment [1] is “can specifically bind an ICB DNA sequence”.
